Results from patent US7244606B2, “Modified BACE” (Elan Pharmaceuticals, Inc., priority 2002, dated 2007).
Where “and” joins values, the source holds several entries; their conditions need not be identical. Equal entries are not always repeated.

How the values were obtained:
[1] = system: substrate S-1 (SEQ ID NO: 10); test: BACE activity assay: cleavage of substrate S-1, HPLC tryptophan fluorescence peak area; type: biochemical; conditions: for Activity Assays (Fluorescence Peak Area): 50 μl BACE sample containing 5–10 pmoles protein, 5 μl 1 mM substrate S-1, NaOAc pH 5.0, 1–2 hours at 37° C.
Procedure: The activity of P33K-BACE expressed in E. coli according the above Examples was compared to the activity of human BACE prepared as above without the P33K mutation, and to human BACE expressed in CHO cells.
To assay for BACE activity, the following activity assay conditions were utilized, unless specifically indicated otherwise: 20 μl 1 M sodium acetate (NaOAc), pH 5.0; 125 μl H2O; 50 μl BACE sample containing 5–10 pmoles protein; and 5 μl 1 mM substrate S-1 (SEQ ID NO: 10).
The 200 μl assay reaction was incubated for 1–2 hours at 37° C. Activity was expressed as fluorescence peak area generated by the liberation of a fluorescent (Tryptophan fluorescence) product upon cleavage of Substrate S-1 by recombinant BACE. The reaction was stopped with 100 μl of 4% TFA in H2O. In order to separate the cleavage products and thereby detect activity of recombinant BACE, 50 microliters of the reaction mixture was injected into a Hewlett Packard Model 1100 HPLC equipped with an Alltech Rocket™ column (7 mm i.d., ×53 mm length, C18, 3 μm) pre-equilibrated with 88% Reagent A (0.1% TFA in water), 12% Reagent B (0.1% TFA in acetonitrile). The flow rate over this column was 3 ml per minute.

polypeptide substrate = conditions: assayed with a polypeptide substrate; cited from earlier work

B1: CHO BACE: human BACE construct Asp2-2L-TM-His6 expressed in CHO cells; 50:50 mixture of two isoforms (control) (protein)
chain: TQHGIRLPLRSGLGGAPLGLRLPRETDEEPEEPGRRGSFVEMVDNLRGKSGQGYYVEMTVGSPPQTLNILVDTGSSNFAVGAAPHPFLHRYYQRQLSSTYRDLRKGVYVPYTQGKWEGELGTDLVSIPHGPNVTVRANIAAITESDKFFINGSNWEGILGLAYAEIARPDDSLEPFFDSLVKQTHVPNLFSLQLCGAGFPLNQSEVLASVGGSMIIGGIDHSLYTGSLWYTPIRREWYYEVIIVRVEINGQDLKMDCKEYNYDKSIVDSGTTNLRLPKKVFEAAVKSIKAASSTEKFPDGFWLGEQLVCWQAGTTPWNIFPVISLYLMGEVTNQSFRITILPQQYLRPVEDVATSQDDCYKFAISQSSTGTVMGAVIMEGFYVVFDRARKRIGFAVSACHVHDEFRTAAVEGPFVTLDMEDCGYNIPQTDESHHHHHH
- Activity Assays (Fluorescence Peak Area) [1]: 83.32 and 85.20 and 78.07

B2: β-secretase with the pro-segment intact: β-secretase with the pro-segment intact, from Shi et al., 2001 (protein, UniProt P56817 22-501, looked up)
pro-form: TQHGIRLPLRSGLGGAPLGLRLPRETDEEPEEPGRRGSFVEMVDNLRGKSGQGYYVEMTVGSPPQTLNILVDTGSSNFAVGAAPHPFLHRYYQRQLSSTYRDLRKGVYVPYTQGKWEGELGTDLVSIPHGPNVTVRANIAAITESDKFFINGSNWEGILGLAYAEIARPDDSLEPFFDSLVKQTHVPNLFSLQLCGAGFPLNQSEVLASVGGSMIIGGIDHSLYTGSLWYTPIRREWYYEVIIVRVEINGQDLKMDCKEYNYDKSIVDSGTTNLRLPKKVFEAAVKSIKAASSTEKFPDGFWLGEQLVCWQAGTTPWNIFPVISLYLMGEVTNQSFRITILPQQYLRPVEDVATSQDDCYKFAISQSSTGTVMGAVIMEGFYVVFDRARKRIGFAVSACHVHDEFRTAAVEGPFVTLDMEDCGYNIPQTDESTLMTIAYVMAAICALFMLPLCLMVCQWRCLRCLRQQHDDFADDISLLK
modifications: pro-form
- k(cat)/K(m), fold less than β-secretase (polypeptide substrate): 2.3 fold

B3: E. Coli BACE: human BACE prepared as above in E. coli without the P33K mutation (protein)
chain: MASMTGGQQMGRGSMAGVLPAHGTQHGIRLPLRSGLGGAPLGLRLPRETDEEPEEPGRRGSFVEMVDNLRGKSGQGYYVEMTVGSPPQTLNILVDTGSSNFAVGAAPHPFLHRYYQRQLSSTYRDLRKGVYVPYTQGKWEGELGTDLVSIPHGPNVTVRANIAAITESDKFFINGSNWEGILGLAYAEIARPDDSLEPFFDSLVKQTHVPNLFSLQLCGAGFPLNQSEVLASVGGSMIIGGIDHSLYTGSLWYTPIRREWYYEVIIVRVEINGQDLKMDCKEYNYDKSIVDSGTTNLRLPKKVFEAAVKSIKAASSTEKFPDGFWLGEQLVCWQAGTTPWNIFPVISLYLMGEVTNQSFRITILPQQYLRPVEDVATSQDDCYKFAISQSSTGTVMGAVIMEGFYVVFDRARKRIGFAVSACHVHDEFRTAAVEGPFVTLDMEDCGYNIPQTDES
- Activity Assays (Fluorescence Peak Area) [1]: 31.03 and 45.80 and 31.86

B4: E. Coli P33K-BACE: recombinant human BACE with proline to lysine mutation at position 33, terminated at S432, expressed in E. coli and refolded (protein, listed as Homo sapiens)
chain: TQHGIRLPLRSGLGGAPLGLRLPRETDEEPEEKGRRGSFVEMVDNLRGKSGQGYYVEMTVGSPPQTLNILVDTGSSNFAVGAAPHPFLHRYYQRQLSSTYRDLRKGVYVPYTQGKWEGELGTDLVSIPHGPNVTVRANIAAITESDKFFINGSNWEGILGLAYAEIARPDDSLEPFFDSLVKQTHVPNLFSLQLCGAGFPLNQSEVLASVGGSMIIGGIDHSLYTGSLWYTPIRREWYYEVIIVRVEINGQDLKMDCKEYNYDKSIVDSGTTNLRLPKKVFEAAVKSIKAASSTEKFPDGFWLGEQLVCWQAGTTPWNIFPVISLYLMGEVTNQSFRITILPQQYLRPVEDVATSQDDCYKFAISQSSTGTVMGAVIMEGFYVVFDRARKRIGFAVSACHVHDEFRTAAVEGPFVTLDMEDCGYNIPQTDES
modifications: Amino acid sequence of human BACE with P33K mutation.
- Activity Assays (Fluorescence Peak Area) [1]: 38.41 and 26.50 and 32.84
- activity compared with BACE ([1]; result in words): essentially the same activity of BACE
